Assay results reported in patent US10201586B2 (dated 2019).
Like-named read-outs stand apart in the source and are kept apart here. Where a SMILES comes first, the peptide text is derived from it. Bridges are numbered along the chain shown (N, C = ends). [ ]: non-standard residue; d: D form. NMeF = CN[C@@H](Cc1ccccc1)C(=O)O; β3hD = NC(CC(=O)O)CC(=O)O; Aib = CC(C)(N)C(=O)O; Sar = CNCC(=O)O

What was measured:
TFPI [1] = molecular target: T1, TFPI (Homo sapiens, UniProt P10646); assay: % Inhibition @ 2.5µM; details: read-out: % Inhibition @ […]
Target sequence in this assay (P10646 29-304 limits assumed): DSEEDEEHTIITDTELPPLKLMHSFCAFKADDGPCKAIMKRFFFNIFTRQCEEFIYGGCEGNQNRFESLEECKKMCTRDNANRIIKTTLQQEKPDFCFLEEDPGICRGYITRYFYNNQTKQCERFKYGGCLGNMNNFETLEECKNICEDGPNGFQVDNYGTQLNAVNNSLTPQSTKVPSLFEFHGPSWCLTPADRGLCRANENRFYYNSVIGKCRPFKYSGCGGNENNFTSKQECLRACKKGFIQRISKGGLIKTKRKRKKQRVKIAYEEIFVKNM

TFPI [2] = molecular target: T1, TFPI; assay: Extrinsic Tenase Inhibition assay | % Inhibition @ 2.5µM; details: read-out: Extrinsic Tenase Inhibition assay | % Inhibition @ […]
Target sequence in this assay (P10646 29-304 limits assumed): as above

TFPI [3] = molecular target: T1, TFPI; assay: Extrinsic Tenase Inhibition assay | EC50 (µM)
Target sequence in this assay (P10646 29-304 limits assumed): as above

TFPI [4] = molecular target: T1, TFPI; assay: % Inhibition @ 2.5µM; details: read-out: % Inhibition @ […]; remark: listed apart in the source
Target sequence in this assay (P10646 29-304 limits assumed): as above

TFPI [5] = molecular target: T1, TFPI; assay: Extrinsic Tenase Inhibition assay | EC50 (µM); remark: listed apart in the source
Target sequence in this assay (P10646 29-304 limits assumed): as above

TFPI [6] = molecular target: T1, TFPI; assay: Extrinsic Tenase Inhibition assay | % Inhibition @ 2.5µM; details: read-out: Extrinsic Tenase Inhibition assay | % Inhibition @ […]; remark: listed apart in the source
Target sequence in this assay (P10646 29-304 limits assumed): as above

TFPI [7] = molecular target: T1, TFPI; assay: FXa Inhibition assay | EC50 (µM)
TFPI [8] = molecular target: T1, TFPI; assay: Extrinsic Tenase Inhibition assay | % Inhibition @ 2.5µM
TFPI [9] = molecular target: T1, TFPI; assay: as above; remark: listed apart in the source
TFPI [10] = molecular target: T1, TFPI; assay: % Inhibition @ 2.5µM
TFPI [11] = molecular target: T1, TFPI; assay: Extrinsic Tenase Inhibition assay | % Inhibition @ 2.5µM; remark: listed apart in the source
TFPI [12] = molecular target: T1, TFPI; assay: % Inhibition @ 2.5µM; remark: listed apart in the source
TFPI [13] = molecular target: T1, TFPI; assay: Extrinsic Tenase Inhibition assay | % Inhibition @ 2.5μM
TFPI [14] = molecular target: T1, TFPI; assay: Extrinsic Tenase Inhibition assay | % Inhibition @ 2.5µM; remark: listed apart in the source
TFPI [15] = molecular target: T1, TFPI; assay: % Inhibition @ 2.5µM; remark: listed apart in the source

Compound: CSCC[C@@H]1NC(=O)CNC(=O)[C@@H](NC(=O)[C@H](Cc2ccccc2)NC(=O)[C@H](Cc2c[nH]c3ccccc23)NC(=O)[C@H](CCCCN)NC(=O)[C@H](Cc2ccc(O)cc2)NC(=O)[C@H](CCCNC(=N)N)NC(=O)[C@H](CO)NC(=O)[C@H](CCCCN)NC(=O)[C@H](CCCCN)NC(C)=O)CSSC[C@@H](C(=O)N[C@H](C(=O)N[C@@H](Cc2c[nH]c3ccccc23)C(=O)N[C@@H](CCCCN)C(=O)N[C@@H](CCCCN)C(N)=O)C(C)C)NC(=O)[C@H](CO)NC(=O)[C@H](CCSC)NC(=O)[C@H]([C@@H](C)O)NC(=O)CNC(=O)[C@H](CCCCN)NC(=O)[C@H](CCSC)NC(=O)[C@H](CC(=O)O)NC(=O)[C@H](CCCNC(=N)N)NC1=O [JBT0250] (Ac-KKSRYKWFCGMRDMKGTMSCVWKK-NH2; disulfide 9-20)
- inhibition at […] (TFPI [1]): 11%
- inhibition at […] (TFPI [2]): 19%

Compound: CC(=O)N(C)[C@@H](Cc1ccccc1)C(=O)N[C@@H](CCC(N)=O)C(=O)N[C@@H](CO)C(=O)N[C@@H](CCCCN)C(=O)NCC(=O)N[C@@H](CC(N)=O)C(=O)N[C@H](C(=O)N[C@@H](Cc1ccccc1)C(=O)N[C@H](C(=O)N[C@@H](Cc1ccccc1)C(=O)NCC(=O)N[C@@H](Cc1ccc(O)cc1)C(=O)N[C@@H](Cc1ccccc1)C(=O)N[C@@H](CCC(=O)O)C(=O)N[C@@H](CCCNC(=N)N)C(=O)N[C@@H](CC(C)C)C(=O)N[C@@H](CCCNC(=N)N)C(=O)N[C@@H](C)C(=O)N[C@@H](CCCCN)C(=O)N[C@@H](CC(C)C)C(N)=O)C(C)C)C(C)C [JBT0497] (Ac-[NMeF]QSKGNVFVFGYFERLRAKL-NH2)
- EC50 (TFPI [3]): 1130 nM

Compound: CC(=O)N[C@@H](Cc1ccccc1)C(=O)N[C@@H](CCC(N)=O)C(=O)N[C@@H](CO)C(=O)N[C@@H](CCCCN)C(=O)N(C)CC(=O)N[C@@H](CC(N)=O)C(=O)N[C@H](C(=O)N[C@@H](Cc1ccccc1)C(=O)N[C@H](C(=O)N[C@@H](Cc1ccccc1)C(=O)NCC(=O)N[C@@H](Cc1ccc(O)cc1)C(=O)N[C@@H](Cc1ccccc1)C(=O)N[C@@H](C)C(=O)N[C@@H](CCCNC(=N)N)C(=O)N[C@@H](CC(C)C)C(=O)N[C@@H](CCCNC(=N)N)C(=O)N[C@@H](C)C(=O)N[C@@H](CCCCN)C(=O)N[C@@H](CC(C)C)C(N)=O)C(C)C)C(C)C [JBT0780] (Ac-FQSK[Sar]NVFVFGYFARLRAKL-NH2)
- inhibition at […] (TFPI [4]): 45%
- EC50 (TFPI [5]): 1920 nM

Compound: CC(=O)N[C@@H](Cc1ccccc1)C(=O)N[C@@H](CCC(N)=O)C(=O)N[C@@H](CO)C(=O)N[C@@H](CCCCN)C(=O)N(C)CC(=O)N[C@@H](CC(N)=O)C(=O)N[C@H](C(=O)N[C@@H](Cc1ccccc1)C(=O)N[C@H](C(=O)N[C@H](C(=O)NCC(=O)N[C@@H](Cc1ccc(O)cc1)C(=O)N[C@@H](Cc1ccccc1)C(=O)N[C@@H](CCC(=O)O)C(=O)N[C@@H](CCCNC(=N)N)C(=O)N[C@@H](CC(C)C)C(=O)N[C@@H](CCCNC(=N)N)C(=O)N[C@@H](C)C(=O)N[C@@H](CCCCN)C(=O)N[C@@H](CC(C)C)C(N)=O)[C@@H](C)O)C(C)C)C(C)C [JBT1155] (Ac-FQSK[Sar]NVFVTGYFERLRAKL-NH2)
- inhibition at […] (TFPI [6]): 32%
- EC50 (TFPI [7]): 210 nM

Compound: Ac-FQSK-Nmg-NVFVTGYFERL-Aib-AKL-NH2 (SEQ ID NO: 165) (Ac-FQSK[Sar]NVFVTGYFERL[Aib]AKL-NH2; SMILES CC(=O)N[C@@H](Cc1ccccc1)C(=O)N[C@@H](CCC(N)=O)C(=O)N[C@@H](CO)C(=O)N[C@@H](CCCCN)C(=O)N(C)CC(=O)N[C@@H](CC(N)=O)C(=O)N[C@H](C(=O)N[C@@H](Cc1ccccc1)C(=O)N[C@H](C(=O)N[C@H](C(=O)NCC(=O)N[C@@H](Cc1ccc(O)cc1)C(=O)N[C@@H](Cc1ccccc1)C(=O)N[C@@H](CCC(=O)O)C(=O)N[C@@H](CCCNC(=N)N)C(=O)N[C@@H](CC(C)C)C(=O)NC(C)(C)C(=O)N[C@@H](C)C(=O)N[C@@H](CCCCN)C(=O)N[C@@H](CC(C)C)C(N)=O)[C@@H](C)O)C(C)C)C(C)C) [JBT1585]
- Extrinsic Tenase Inhibition assay | % Inhibition @ […] (TFPI [8]): 48%

Compound: Ac-FQSKGNVFVFGYF-bE-RLRAKL-NH2 (SEQ ID NO: 272) (Ac-FQSKGNVFVFGYF[β3hD]RLRAKL-NH2; SMILES CC(=O)N[C@@H](Cc1ccccc1)C(=O)N[C@@H](CCC(N)=O)C(=O)N[C@@H](CO)C(=O)N[C@@H](CCCCN)C(=O)NCC(=O)N[C@@H](CC(N)=O)C(=O)N[C@H](C(=O)N[C@@H](Cc1ccccc1)C(=O)N[C@H](C(=O)N[C@@H](Cc1ccccc1)C(=O)NCC(=O)N[C@@H](Cc1ccc(O)cc1)C(=O)N[C@@H](Cc1ccccc1)C(=O)N[C@@H](CC(=O)O)CC(=O)N[C@@H](CCCNC(=N)N)C(=O)N[C@@H](CC(C)C)C(=O)N[C@@H](CCCNC(=N)N)C(=O)N[C@@H](C)C(=O)N[C@@H](CCCCN)C(=O)N[C@@H](CC(C)C)C(N)=O)C(C)C)C(C)C) [JBT0528]
- Extrinsic Tenase Inhibition assay | % Inhibition @ […] (TFPI [9]): 8%
- % Inhibition @ […] (TFPI [10]): 25%

Compound: Ac-FQSKGNVFVFGYFERLR-bAla-KL-NH2 (SEQ ID NO: 423) [JBT0532]
- Extrinsic Tenase Inhibition assay | % Inhibition @ […] (TFPI [11]): 0%
- % Inhibition @ […] (TFPI [10]): 14%

Compound: Ac-SRYKWFGMR[CDMKGC]TMSVWVKF-NH2 (SEQ ID NO: 1162) (Ac-SRYKWFGMRCDMKGCTMSVWVKF-NH2; disulfide 10-15; SMILES CSCC[C@H](NC(=O)CNC(=O)[C@H](Cc1ccccc1)NC(=O)[C@H](Cc1c[nH]c2ccccc12)NC(=O)[C@H](CCCCN)NC(=O)[C@H](Cc1ccc(O)cc1)NC(=O)[C@H](CCCNC(=N)N)NC(=O)[C@H](CO)NC(C)=O)C(=O)N[C@@H](CCCNC(=N)N)C(=O)N[C@H]1CSSC[C@@H](C(=O)N[C@H](C(=O)N[C@@H](CCSC)C(=O)N[C@@H](CO)C(=O)N[C@H](C(=O)N[C@@H](Cc2c[nH]c3ccccc23)C(=O)N[C@H](C(=O)N[C@@H](CCCCN)C(=O)N[C@@H](Cc2ccccc2)C(N)=O)C(C)C)C(C)C)[C@@H](C)O)NC(=O)CNC(=O)[C@H](CCCCN)NC(=O)[C@H](CCSC)NC(=O)[C@H](CC(=O)O)NC1=O) [JBT0470]
- % Inhibition @ […] (TFPI [12]): 0%
- Extrinsic Tenase Inhibition assay | % Inhibition @ […] (TFPI [13]): 2%

Compound: Ac-SRYKWF[CGMADMKGTMSC]VWVKF-NH2 (SEQ ID NO: 1079) (Ac-SRYKWFCGMADMKGTMSCVWVKF-NH2; disulfide 7-18; SMILES CSCC[C@@H]1NC(=O)CNC(=O)[C@@H](NC(=O)[C@H](Cc2ccccc2)NC(=O)[C@H](Cc2c[nH]c3ccccc23)NC(=O)[C@H](CCCCN)NC(=O)[C@H](Cc2ccc(O)cc2)NC(=O)[C@H](CCCNC(=N)N)NC(=O)[C@H](CO)NC(C)=O)CSSC[C@@H](C(=O)N[C@H](C(=O)N[C@@H](Cc2c[nH]c3ccccc23)C(=O)N[C@H](C(=O)N[C@@H](CCCCN)C(=O)N[C@@H](Cc2ccccc2)C(N)=O)C(C)C)C(C)C)NC(=O)[C@H](CO)NC(=O)[C@H](CCSC)NC(=O)[C@H]([C@@H](C)O)NC(=O)CNC(=O)[C@H](CCCCN)NC(=O)[C@H](CCSC)NC(=O)[C@H](CC(=O)O)NC(=O)[C@H](C)NC1=O) [JBT0446]
- Extrinsic Tenase Inhibition assay | % Inhibition @ […] (TFPI [14]): 46%
- % Inhibition @ […] (TFPI [15]): 50%
